For two substances, binding affinity ratio (IC50 of standard peptide / IC50 of test peptide) results are on record in patent publication US9266930.

“[…] (Pf LSA 1704, 9-mer A03 supermotif peptide) (peptide; other documents disagree on this pair)”: the binding affinity ratio (IC50 of standard peptide / IC50 of test peptide) with HLA-A*1101 (human) was 0.0007; with HLA-A*3101 (human), 0.0025; in the assay with HLA-A*3301 (human), 0.0043; with HLA-A*6801 (human), 0.32.
For “[…] (Pf LSA 1693, 9-mer A03 supermotif peptide) (peptide; other documents disagree on this pair)”, the binding affinity ratio (IC50 of standard peptide / IC50 of test peptide) with HLA-A*6801 (human) is 0.0054.
